Assay results reported in patent US20250026849A1 (ARCELLX, published 2025).
Positions count from the first letter of the chain named.

B1: D-domain SEQ ID NO: 320 (designed binder)
chain: MGSWDHFKYNLAWIKKYLEALGGSEAELATFEWYIANFEKRLQDYKGKGNPEVEALRKEAAAIRDELQAYRHN
B2: D-domain SEQ ID NO: 315 (designed binder)
chain: MGSWAYFKYGLAVIKLHLEALGGSEAELADFERYIAEFEYELQAYKGKGNPEVEALRKEAAAIRDELQAYRHN
B3: D-domain SEQ ID NO: 330 (designed binder)
chain: MGSWTDFKTSLADIKAELEALGGSEAELAKFEYYIAIFEYRLQEYKGKGNPEVEALRKEAAAIRDELQAYRHN
B4: D-domain SEQ ID NO: 332 (designed binder)
chain: B3 chain with T5H, D6T, T9D, S10G, D13E, A16S, K30M, Y34V, E44N
B5: D-domain SEQ ID NO: 325 (designed binder)
chain: MGSWISFKDNLAMIKEFLEALGGSEAELAVFEWYIATFEVELQDYKGKGNPEVEALRKEAAAIRDELQAYRHN
B6: D-domain SEQ ID NO: 326 (designed binder)
chain: B5 chain with I5H, S6I, M13T, E16A, T37K, V40E, D44G
B7: D-domain SEQ ID NO: 296 (designed binder)
chain: MGSWFSFKHHLAVIKWNLEALGGSEAELASFEEQIAEFESVLQAYKGKGNPEVEALRKEAAAIRDELQAYRHN
B8: D-domain SEQ ID NO: 49 (designed binder)
chain: MGSWTEFAWRLQAIHQRLQALGGSEAELAAFEKEIAAFESELQAYKGKGNPEVEELRVYAAKIRISLQAYRHN
B9: D-domain SEQ ID NO: 48 (designed binder)
chain: B8 chain with T5N, Q12T, H15E, Q19M, V58H, K62G, I65D, S66N
B10: D-domain SEQ ID NO: 45 (designed binder)
chain: B8 chain with T5H, A8T, Q12I, H15Q, Q19E, V58A, K62G, I65H, S66H
B11: D-domain SEQ ID NO: 47 (designed binder)
chain: B8 chain with T5H, H15N, Q19N, V58H, K62H, I65N, S66G
B12: D-domain SEQ ID NO: 50 (designed binder)
chain: B8 chain with T5I, Q19D, E55D, V58E, K62N, I65D
B13: D-domain SEQ ID NO: 46 (designed binder)
chain: B8 chain with T5R, Q12V, H15N, Q16S, Q19K, V58H, K62S, I65D, S66G
B14: D-domain SEQ ID NO: 44 (designed binder)
chain: B8 chain with T5Y, A8S, Q19N, V58A, K62G, I65G, S66A
B15: D-domain SEQ ID NO: 336 (designed binder)
chain: MGSWYLFQSHLAHIKHHLEALGGSEAELAWFEFTIAGFEQELQHYKGKGNPEVEALRKEAAAIRDELQAYRHN
B16: D-domain SEQ ID NO: 338 (designed binder)
chain: MGSWTTLKWRLAHIKQHLEALGGSEAELALFEYDIAHFEELLQYYKGKGNPEVEALRKEAAAIRDELQAYRHN
B17: D-domain SEQ ID NO: 316 (designed binder)
chain: MGSWLDFKEGLADIKRSLEALGGSEAELADFEGVIALFEWKLQTYKGKGNPEVEALRKEAAAIRDELQAYRHN
B18: D-domain SEQ ID NO: 295 (designed binder)
chain: MGSWFYFKQKLAFIKWYLEALGGSEAELANFEIYIAEFEVMLQQYKGKGNPEVEALRKEAAAIRDELQAYRHN
B19: D-domain SEQ ID NO: 297 (designed binder)
chain: MGSWGNFKYRLAIIKFHLEALGSSEAELATFEAWIANFESMLQNYKGKGNPEVEALRKEAAAIRDELQAYRHN
B20: D-domain SEQ ID NO: 331 (designed binder)
chain: MGSWTNFKEGLAEIKRDLEALGGSEAELARFEYVIAVFEFRLQNYKGKGNPEVEALRKEAAAIRDELQAYRHN
B21: D-domain SEQ ID NO: 321 (designed binder)
chain: MGSWFTFKQNLAWIKLHLEALGGSEAELARFEYYIADFENKLQLYKGKGNPEVEALRKEAAAIRDELQAYRHN
B22: D-domain SEQ ID NO: 339 (designed binder)
chain: MGSWYGFKWYLATIKKHLEALGGSEAELALFETEIATFELWLQDYKGKGNPEVEALRKEAAAIRDELQAYRHN
B23: D-domain SEQ ID NO: 317 (designed binder)
chain: MGSWEVFKHELAVIKDYLEALGGSEAELAHFEWGIAWFEGFLQDYKGKGNPEVEALRKEAAAIRDELQAYRHN
B24: D-domain SEQ ID NO: 328 (designed binder)
chain: MGSWQSFKHALADIKINLEALGGSEAELAQFEYAIAVFEYRLQAYKGKGNPEVEALRKEAAAIRDELQAYRHN
B25: D-domain SEQ ID NO: 329 (designed binder)
chain: B24 chain with Q5H, S6T, H9E, D13Q, I16G, N17E, Q30S, A44M
B26: D-domain SEQ ID NO: 335 (designed binder)
chain: MGSWIIFKGYLAHIKHHLEALGGSEAELADFEFYIAIFEMELQKYKGKGNPEVEALRKEAAAIRDELQAYRHN
B27: D-domain SEQ ID NO: 327 (designed binder)
chain: MGSWTSFKHGLAGIKRVLEALGGSEAELATFEWYIAQFERHLQAYKGKGNPEVEALRKEAAAIRDELQAYRHN
B28: D-domain SEQ ID NO: 318 (designed binder)
chain: MGSWIVFKQSLAWIKEHLEALGGSEAELAEFEFYIANFEHTLQNYKGKGNPEVEALRKEAAAIRDELQAYRHN
B29: D-domain SEQ ID NO: 319 (designed binder)
chain: B1 chain with D5I, H6Y, Y9D, N10S, W13Y, W33Y, K40H, R41E, D44Y
B30: D-domain SEQ ID NO: 333 (designed binder)
chain: MGSWQFFKEHLASIKFWLEALGGSEAELAFFEDAIADFEYHLQNYKGKGNPEVEALRKEAAAIRDELQAYRHN
B31: D-domain SEQ ID NO: 334 (designed binder)
chain: B30 chain with Q5T, F6Y, D37E, Y40K, H41D, N44Y
B32: D-domain SEQ ID NO: 322 (designed binder)
chain: MGSWREFKYGLAHIKRVLEALGGSEAELAVFEYYIAKFEQELQEYKGKGNPEVEALRKEAAAIRDELQAYRHN
B33: D-domain SEQ ID NO: 324 (designed binder)
chain: B32 chain with R5V, Y9H, G10N, H13W, R16V, V17T, K37Q, Q40E, E41Q
B34: D-domain SEQ ID NO: 323 (designed binder)
chain: B32 chain with R5I, E6Q, V17T, Y33W, K37D, E41Q, E44G
B35: D-domain SEQ ID NO: 304 (designed binder)
chain: MGSWSYFKYGLATIKEKLEALGGSEAELADFETWIAMFEKQLQEYKGKGNPEVEALRKEAAAIRDELQAYRHN
B36: D-domain SEQ ID NO: 313 (designed binder)
chain: B35 chain with S5G, Y9H, T13H, E16S, K17S, T33V, M37A, K40N, Q41E
B37: D-domain SEQ ID NO: 302 (designed binder)
chain: B35 chain with S5G, E16H, K17R, T33L, M37K, K40E, E44V
B38: D-domain SEQ ID NO: 298 (designed binder)
chain: B35 chain with T13I, E16I, K17R, T33R, M37A, K40H, Q41D, E44Y
B39: D-domain SEQ ID NO: 314 (designed binder)
chain: MGSWGYFKTGLAIIKAQLEALGGSEAELADFELWIAQFEETLQFYKGKGNPEVEALRKEAAAIRDELQAYRHN
B40: D-domain SEQ ID NO: 303 (designed binder)
chain: B35 chain with S5E, E16M, K17H, T33H, M37H, K40H, E44M
B41: D-domain SEQ ID NO: 311 (designed binder)
chain: B35 chain with S5D, T13L, E16I, T33V, M37Q, K40M, Q41A, E44V
B42: D-domain SEQ ID NO: 310 (designed binder)
chain: B39 chain with G5T, T9Y, I13L, A16Y, Q17R, L33E, E40V, T41S, F44H
B43: D-domain SEQ ID NO: 306 (designed binder)
chain: B35 chain with S5Q, T13I, E16I, T33A, M37T, E44H
B44: D-domain SEQ ID NO: 312 (designed binder)
chain: B35 chain with S5T, Y9F, T13H, E16D, K17S, T33Q, K40Q, Q41D, E44V
B45: D-domain SEQ ID NO: 300 (designed binder)
chain: B2 chain with A5S, Y9W, V13H, H17R, R33F, Y34W, Y40G, E41L, A44D
B46: D-domain SEQ ID NO: 305 (designed binder)
chain: B35 chain with S5H, Y9N, T13I, T33I, K40M, Q41E
B47: D-domain SEQ ID NO: 301 (designed binder)
chain: B35 chain with S5I, T13H, E16T, K17R, T33Q, M37E, Q41M, E44D
B48: D-domain SEQ ID NO: 309 (designed binder)
chain: B35 chain with S5Y, T13V, E16G, M37K, K40N, Q41H, E44S
B49: D-domain SEQ ID NO: 307 (designed binder)
chain: B39 chain with G5V, T9H, I13V, A16M, Q17R, L33T, E40M, F44E
B50: D-domain SEQ ID NO: 299 (designed binder)
chain: B35 chain with Y9F, T13H, E16L, K17R, T33Q, M37S, K40E, E44T
B51: D-domain SEQ ID NO: 308 (designed binder)
chain: B35 chain with S5V, T13V, M37E, K40F, Q41G, E44Q
B52: D-domain SEQ ID NO: 337 (designed binder)
chain: MGSWYSFKWTLARIKLELEALGGSEAELAYFENVIAHFEMELQSYKGKGNPEVEALRKEAAAIRDELQAYRHN

target: T1, BCMA (Homo sapiens (Human), UniProt Q02223 1-54, limits assumed); test: ELISA, format not described; design: unit not given here
T1 sequence: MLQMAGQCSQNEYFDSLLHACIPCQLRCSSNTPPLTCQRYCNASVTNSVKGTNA

Binder	ELISA_avg
B1	9.81
B2	13.4
B3	18.8
B4	10.7
B5	7.16
B6	3.47
B7	6.45
B8	18.7
B9	18.3
B10	17.1
B11	13.1
B12	19
B13	9.66
B14	9.49
B15	7.69
B16	17.8
B17	3.03
B18	7.23
B19	22.7
B20	12.3
B21	14.2
B22	10.7
B23	9.33
B24	13.7
B25	6.76
B26	5.18

Binder	ELISA_avg
B27	9.77
B28	10.6
B29	3.2
B30	10.6
B31	6.6
B32	14.7
B33	15.8
B34	8.36
B35	18.1
B36	18.5
B37	14
B38	13.3
B39	12.8
B40	18.4
B41	15.8
B42	15.2
B43	10.3
B44	17
B45	17.6
B46	19.9
B47	21.1
B48	3.84
B49	21.4
B50	18.4
B51	17.6
B52	4.05
